# Source: US20230265179A1 (TWIST BIOSCIENCE, published 2023)
# Where a chain is given by its changes, count along the chain named.
# T1: IL1RL2 over-expressed on Expi293 cells (UniProt Q9HB29 20-575, limits assumed)
# T1 construct: whole, on cells; Target of the flow cytometry assay; MFI ratio is over-expressing cells over parent cells
# T1 sequence (looked up): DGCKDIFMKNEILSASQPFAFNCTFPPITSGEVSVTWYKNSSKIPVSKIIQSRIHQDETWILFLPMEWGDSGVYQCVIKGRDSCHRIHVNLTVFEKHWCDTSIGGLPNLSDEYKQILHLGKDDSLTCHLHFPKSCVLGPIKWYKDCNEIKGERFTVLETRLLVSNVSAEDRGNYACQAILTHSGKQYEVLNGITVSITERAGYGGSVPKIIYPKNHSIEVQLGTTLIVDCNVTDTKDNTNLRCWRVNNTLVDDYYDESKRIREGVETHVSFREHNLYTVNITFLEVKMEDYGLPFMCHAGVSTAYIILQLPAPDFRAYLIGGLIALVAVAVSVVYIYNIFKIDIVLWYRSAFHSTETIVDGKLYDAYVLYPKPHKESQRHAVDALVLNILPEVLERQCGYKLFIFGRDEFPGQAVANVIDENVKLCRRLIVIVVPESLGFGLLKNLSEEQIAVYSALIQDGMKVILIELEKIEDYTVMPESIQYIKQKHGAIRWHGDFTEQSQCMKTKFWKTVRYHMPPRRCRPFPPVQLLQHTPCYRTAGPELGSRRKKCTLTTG
# T2: IL1RL1 (UniProt Q01638 19-556, limits assumed)
# T2 construct: whole, on cells; The flow cytometry used 'cytokine over-expressing Expi293 cells' against Expi293 parent cells
# T2 sequence (looked up): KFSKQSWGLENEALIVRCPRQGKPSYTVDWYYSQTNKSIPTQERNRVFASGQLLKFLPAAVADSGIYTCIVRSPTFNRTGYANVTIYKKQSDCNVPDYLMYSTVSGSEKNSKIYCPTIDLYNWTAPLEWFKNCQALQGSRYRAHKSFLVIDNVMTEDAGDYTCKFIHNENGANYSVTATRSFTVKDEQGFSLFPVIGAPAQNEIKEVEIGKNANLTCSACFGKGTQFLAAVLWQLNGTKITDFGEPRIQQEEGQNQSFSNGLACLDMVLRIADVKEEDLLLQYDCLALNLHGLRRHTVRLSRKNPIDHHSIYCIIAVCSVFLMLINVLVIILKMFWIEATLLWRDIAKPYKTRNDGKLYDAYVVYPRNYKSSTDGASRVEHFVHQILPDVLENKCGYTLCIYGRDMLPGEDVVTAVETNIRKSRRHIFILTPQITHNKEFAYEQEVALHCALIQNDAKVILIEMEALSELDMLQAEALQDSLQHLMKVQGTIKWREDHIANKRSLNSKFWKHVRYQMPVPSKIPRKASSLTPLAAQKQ
# T3: IL1RL2 (UniProt Q9HB29 20-335, limits assumed)
# T3 construct: Soluble analyte of the SPR runs
# T3 sequence (looked up): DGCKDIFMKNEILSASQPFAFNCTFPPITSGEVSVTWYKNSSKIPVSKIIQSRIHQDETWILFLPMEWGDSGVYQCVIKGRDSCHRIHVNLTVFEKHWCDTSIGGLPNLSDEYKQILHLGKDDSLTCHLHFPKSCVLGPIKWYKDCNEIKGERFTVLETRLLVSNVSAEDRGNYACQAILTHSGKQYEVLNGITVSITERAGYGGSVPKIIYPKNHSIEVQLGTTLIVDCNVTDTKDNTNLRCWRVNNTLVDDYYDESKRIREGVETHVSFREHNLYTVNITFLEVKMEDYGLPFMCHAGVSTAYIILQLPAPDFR
# B1: IL1RL2-180 (antibody, V domains shown)
# VH: EVQLLESGGGLVQPGGSLRLSCAASGFTFSDYDMSWVRQAPGKGLEWVSAIEGAGSDTYYADSVKGRFTISRDNSKNTLYLQMNSLRAEDTAVYYCARLAPEFDYWGQGTLVTVSS
# VL: DIQMTQSPSSLSASVGDRVTITCRASQSISSYVNWYQQKPGKAPKLLIYQNDKRPSGVPSRFSGSGSGTDFTLTISSLQPEDFATYYCQPSFYFPYAFGQGTKVEIK
# notes: IgG2
# B2: IL1RL2-35 (VHH)
# VHH: EVQLVESGGGLVQPGGSLRLSCAASGRTFSTYDMGWFRQAPGKEREFVAAISWSGGSTNYADSVKGRFTISADNSKNTAYLQMNSLKPEDTAVYYCADVNGDWGQGTLVTVSS
# notes: VHH-Fc based on IgG2 Fc
# B3: IL1RL2-27 (VHH)
# VHH: B2 VHH with R27G, T28R, A50S, S52V, S54I, S57R, N59Y
# notes: VHH-Fc based on IgG2 Fc
# B4: IL1RL2-20 (VHH)
# VHH: B2 VHH with F29G, F47L, S54R, N59Y
# notes: VHH-Fc based on IgG2 Fc
# B5: IL1RL2-22 (VHH)
# VHH: EVQLVESGGGLVQPGGSLRLSCAASGRTFGSYAMGWFRQAPGKEREFVAAINWSGARTYYADSVKGRFTISADNSKNTAYLQMNSLKPEDTAVYYCAVSQPLNYYTYYDARRYDWGQGTLVTVSS
# notes: VHH-Fc based on IgG2 Fc
# B6: IL1RL2-298 (antibody, V domains shown)
# VH: EVQLLESGGGLVQPGGSLRLSCAASGFTFPSYAMAWVRQAPGKGLEWVSAISGSGSSPYYADSVKGRFTISRDNSKNTLYLQMNSLRAEDTAVYYCAREKRSSGWYPHFDYWGQGTLVTVSS
# VL: DIQMTQSPSSLSASVGDRVTITCRASRSIDTYLNWYQQKPGKAPKLLIYGGSRLQSGVPSRFSGSGSGTDFTLTISSLQPEDFATYYCQQSYSTPPVTFGGGTKVEIK
# notes: IgG2
# B7: IL1RL2-12 (VHH)
# VHH: EVQLVESGGGLVQPGGSLRLSCAASGPMSSSAVMGWFRQAPGKEREFVAVVTRWSGARTVYADSVKGRFTISADNSKNTAYLQMNSLKPEDTAVYYCAVSQPLNYYTYYDPRRYDWGQGTLVTVSS
# notes: VHH-Fc based on IgG2 Fc
# B8: IL1RL2-285 (antibody, V domains shown)
# VH: B6 VH with P30S, S31N, Y32F, A35S, A50T, S56G, P58T, Y59S
# VL: DIQMTQSPSSLSASVGDRVTITCRASQTIGTYLNWYQQKPGKAPKLLIYGGSRLQSGVPSRFSGSGSGTDFTLTISSLQPEDFATYYCQQSYSTPYTFGGGTKVEIK
# notes: IgG2
# B9: IL1RL2-302 (antibody, V domains shown)
# VH: EVQLLESGGGLVQPGGSLRLSCAASGFPLSSYAMSWVRQAPGKGLEWVSLISGSGVSTYYADSVKGRFTISRDNSKNTLYLQMNSLRAEDTAVYYCARGWGAAEEWGQGTLVTVSS
# VL: DIQMTQSPSSLSASVGDRVTITCRASQRISNYLHWYQQKPGKAPKLLIYAASRLHSGVPSRFSGSGSGTDFTLTISSLQPEDFATYYCQQSHTIPYTFGQGTKVEIK
# notes: IgG2
# B10: IL1RL2-187 (antibody, V domains shown)
# VH: EVQLLESGGGLVQPGGSLRLSCAASGFTLSSYAMSWVRQAPGKGLEWVSSISSSGGYTGYADSVKGRFTISRDNSKNTLYLQMNSLRAEDTAVYYCAKSFSFFDYWGQGTLVTVSS
# VL: DIQMTQSPSSLSASVGDRVTITCRASQSISSYVNWYQQKPGKAPKLLIYGSSYLQSGVPSRFSGSGSGTDFTLTISSLQPEDFATYYCQQNNNWPTTFGQGTKVEIK
# notes: IgG2
# B11: IL1RL2-299 (antibody, V domains shown)
# VH: EVQLLESGGGLVQPGGSLRLSCAASGFIFSRYAMSWVRQAPGKGLEWVSAISESGGNTYYADSVKGRFTISRDNSKNTLYLQMNSLRAEDTAVYYCARQRYPGGSGSYADYWGQGTLVTVSS
# VL: B8 VL with T28S, G30S, Y32D, G51V, R53S, Y92H, Y96F
# notes: IgG2
# B12: IL1RL2-300 (antibody, V domains shown)
# VH: EVQLLESGGGLVQPGGSLRLSCAASGFTFSGYAMNWVRQAPGKGLEWVSTISGSGVSTYYADSVKGRFTISRDNSKNTLYLQMNSLRAEDTAVYYCAREQHLVEGDFDNWGQGTLVTVSS
# VL: B9 VL with A25T, R28S, N31S, H34N, R53S, H55Q, H92Y, T93N
# notes: IgG2
# B13: IL1RL2-17 (VHH)
# VHH: EVQLVESGGGLVQPGGSLRLSCAASGRTFSTYDMGWFRQAPGKERELVASITFGGDTNYADSVKGRFTISADNSKNTAYLQMNSLKPEDTAVYYCADVNGDWGQGTLVTVSS
# notes: VHH-Fc based on IgG2 Fc
# B14: IL1RL2-5 (VHH)
# VHH: B13 VHH with S30D, T31S, F53Y, G54L, D56R
# notes: VHH-Fc based on IgG2 Fc
# B15: IL1RL2-15 (VHH)
# VHH: B13 VHH with L47F, S50V, T52N, F53Y, G54R, D56S, N58T
# notes: VHH-Fc based on IgG2 Fc
# B16: IL1RL1-377 (antibody, V domains shown)
# VH: EVQLLESGGGLVRPGGSLRLSCAASGFTFRNFAMSWVRQAPGKGLEWVSSISGSGDTTYYADSVKGRFTISRDNSKNTLYLQMNSLRAEDTAVYYCARHKRGRVAVAFPMDVWGQGTLVTVSS
# VL: DIQMTQSPSSLSASVGDRVTITCRASQNIGRYLNWYQQKPGKAPKLLIYGASTLQRGVPSRFSGSGSGTDFTLTISSLQPEDFATYYCQQSYSAPTFGGGTKVEIK
# B17: IL1RL1-375 (antibody, V domains shown)
# VH: EVQLLESGGGLVQPGGSLRLSCAASGFAFSSYAMSWVRQAPGKGLELVSAISGSGDTSYYADSVKGRFTISRDNSKNTLYLQMNSLRAEDTAVYYCARVRRWSNFDYWGQGTLVTVSS
# VL: B8 VL with T28S, G30S, T31R, N34S, G50A, R53K, S56R, S91T, Y96I, T97A
# B18: IL1RL1-380 (antibody, V domains shown)
# VH: EVQLLESGGGLVQPGGPLRLSCAASGFSFSKFAMSWVRQAPGKGLEWVSGISGSGGNTYYADSVKGRFTISRDNSKNTLYLQMNSLRAEDTAVYYCVKGSRGSYRSSTLGPFKHWGQGTLVTVSS
# VL: B8 VL with A25T, T28S, G30S, G50A, G51A, S56N, T94V, Y96G
# B19: IL1RL1-381 (antibody, V domains shown)
# VH: EVQLLESGGGLVQPGGSLRLSCAASGFTSSNYAMTWVRQAPGKGLEWVSSIIGSGGGTYYADSVKGRFTISRDNSKNTLYLQMNSLRAEDTAVYYCARGIPRRKKGAGLFDYWGQGTLVTVSS
# VL: B10 VL with Q27H, Y32H, V33L, S51A, Y53R, S56R, N92Y, W94T, T96F, Q100G
# Target: T1, IL1RL2 over-expressed on Expi293 cells
# Experiment: flow cytometry, over-expressing Expi293 vs parent cells, 100 nM antibody;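 further: ratio is mean fluorescence intensity on over-expressing Expi293 cells divided by that measured on parental Expi293 cells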
# Experimental: (§1) All incubations and washes were in buffer containing PBS+1% BSA. MFI Ratio is defined by the mean fluorescence intensity (MFI) of the cytokine over-expressing Expi293 cell over the Expi293 parent cell. […] EC50 was calculated in GraphPad Prism.
row,100 nM FACS (MFI Ratio),Binder
1,21.5,B1
2,15.6,B2
3,14,B3
4,11.6,B4
5,15.4,B5
6,49.6,B6
7,33.8,B7
8,214,B8
9,192,B9
10,45,B10
11,19.2,B11
12,23.9,B12
13,15.6,B13
14,13.9,B14
15,14.4,B15

# Target: T1, IL1RL2 over-expressed on Expi293 cells
# Experiment: flow cytometry titration on over-expressing Expi293 cells
# Experimental: as §1
row,EC50,Binder
1,15.2 nM,B1
2,0.508 nM,B2
3,64.2 nM,B3
4,9.03 nM,B4
5,3.02 nM,B5
6,100 nM,B6
7,0.528 nM,B7
8,618 nM,B8
9,1.1 nM,B9
10,2.26 nM,B10
11,2.25 nM,B11
12,1.57 nM,B12
13,11.2 nM,B13
14,13.4 nM,B14
15,0.622 nM,B15

# Target: T2, IL1RL1
# Experiment: flow cytometry, 100 nM IgG on IL1RL1 over-expressing Expi293 cells; MFI over that of Expi293 parent cells
# Experimental: as §1
row,100 nM FACS (MFI Ratio),Binder
1,1.21 MFI ratio,B16
2,11.3 MFI ratio,B17
3,0.6 MFI ratio,B18
4,0.85 MFI ratio,B19

# Target: T3, IL1RL2
# Experiment: SPR (Carterra LSA), antibody immobilised, 1:1 model
# Experimental: SPR experiments were performed on a Carterra LSA SPR biosensor equipped with a HC30M chip at 25° C. in HBS-TE. Antibodies were diluted to 10 μg/mL and amine-coupled to the sensor chip by EDC/NHS activation, followed by ethanolamine HCl quenching. Increasing concentrations of analyte were flowed over the sensor chip in HBS-TE with 0.5 mg/mL BSA with 5-minute association and 15-minute dissociation. Following each injection cycle the surface was regenerated with 2× 30-second injections of IgG elution buffer (Thermo). Data were analyzed in Carterra's Kinetics Tool software with 1:1 binding model.
Kd,koff,kon,Binder
4.74 nM,0.000593 s⁻¹,125000 M⁻¹ s⁻¹,B2
1.32 nM,0.000143 s⁻¹,108000 M⁻¹ s⁻¹,B3
3.28 nM,0.000363 s⁻¹,111000 M⁻¹ s⁻¹,B4
3.59 nM,0.000126 s⁻¹,35000 M⁻¹ s⁻¹,B5
12.1 nM,0.000485 s⁻¹,40200 M⁻¹ s⁻¹,B7
1.45 nM,0.00024 s⁻¹,166000 M⁻¹ s⁻¹,B13
2.72 nM,0.000343 s⁻¹,126000 M⁻¹ s⁻¹,B14
4.13 nM,0.000218 s⁻¹,52700 M⁻¹ s⁻¹,B15
